Results as given in patent US20230391845A1, “GLP-1, GIP AND GLUCAGON RECEPTOR TRIPLE AGONISTS” (priority 2020, published 2023).
Where two headings read alike, the source gives them in different places. Where no end group is shown, it is not given here. [ ]: non-standard residue; d: D form. The star is where a group is joined. Palmitoyl = CCCCCCCCCCCCCCCC(=O)*; Aib = CC(C)(N)C(=O)O

T1: human glucose-dependent insulinotropic polypeptide receptor (human, UniProt P48546 22-466)
T1 sequence (looked up): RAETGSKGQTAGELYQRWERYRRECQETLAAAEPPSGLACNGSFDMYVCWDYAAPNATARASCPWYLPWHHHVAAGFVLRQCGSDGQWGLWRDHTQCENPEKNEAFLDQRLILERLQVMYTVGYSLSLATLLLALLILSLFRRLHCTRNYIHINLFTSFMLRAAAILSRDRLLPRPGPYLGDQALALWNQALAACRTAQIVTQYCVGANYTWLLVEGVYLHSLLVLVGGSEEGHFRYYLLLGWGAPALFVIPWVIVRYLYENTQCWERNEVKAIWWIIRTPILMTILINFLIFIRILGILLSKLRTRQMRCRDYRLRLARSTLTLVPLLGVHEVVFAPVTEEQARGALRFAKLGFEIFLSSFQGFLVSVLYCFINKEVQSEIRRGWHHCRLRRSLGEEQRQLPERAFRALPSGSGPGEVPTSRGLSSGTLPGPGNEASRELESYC

B1: Compound No. 3 (peptide)
peptide: Y[Aib]QGTFTSDYSIYLDKQAA[Aib]KFVNWLLAGGPSSGAPPPS-NH2
modifications: not fully specified (residue 21); printed as Y-Aib-QGTFTSDYSIYLDKQAA-Aib-K[2-[2-[2-[[2-[2-[2-[[(4S)-4-carboxy-4-(17-carboxyheptadecanoylamino)butanoyl]amino]ethoxy]ethoxy]acetyl]amino]ethoxy]ethoxy]acetyl]-FVNWLLAGGPSSGAPPPS-NH2
B2: Compound No. 2 (peptide)
peptide: Y[Aib]QGTFTSDYSIYLDKKAA[Aib]EFVNWLLAGGPSSGAPPPS-NH2
modifications: not fully specified (residue 17); printed as Y-Aib-QGTFTSDYSIYLDK-K[2-[2-[2-[[2-[2-[2-[[(4S)-4-carboxy-4-(17-carboxyheptadecanoylamino)butanoyl]amino]ethoxy]ethoxy]acetyl]amino]ethoxy]ethoxy]acetyl]-AA-Aib-EFVNWLLAGGPSSGAPPPS-NH2
B3: Compound No. 1 (peptide)
peptide: Y[Aib]QGTFTSDYSIYLDKQAA[Aib]EFVNWLLAGGPSSGAPPPS-NH2
modifications: not fully specified (residue 16); printed as Y-Aib-QGTFTSDYSIYLD-K[2-[2-[2-[[2-[2-[2-[[(4S)-4-carboxy-4-(17-carboxyheptadecanoylamino)butanoyl]amino]ethoxy]ethoxy]acetyl]amino]ethoxy]ethoxy]acetyl]-QAA-Aib-EFVNWLLAGGPSSGAPPPS-NH2
B4: Compound No. 58 (peptide)
peptide: Y[Aib]QGTFTSDYSIYLDKQAA[Aib]EFVNWLLAGGPSSGAPPPSK(Palmitoyl)-NH2
modifications: N-terminus assumed
SMILES: CCCCCCCCCCCCCCCC(=O)NCCCC[C@H](NC(=O)[C@H](CO)NC(=O)[C@@H]1CCCN1C(=O)[C@@H]1CCCN1C(=O)[C@@H]1CCCN1C(=O)[C@H](C)NC(=O)CNC(=O)[C@H](CO)NC(=O)[C@H](CO)NC(=O)[C@@H]1CCCN1C(=O)CNC(=O)CNC(=O)[C@H](C)NC(=O)[C@H](CC(C)C)NC(=O)[C@H](CC(C)C)NC(=O)[C@H](Cc1c[nH]c2ccccc12)NC(=O)[C@H](CC(N)=O)NC(=O)[C@@H](NC(=O)[C@H](Cc1ccccc1)NC(=O)[C@H](CCC(=O)O)NC(=O)C(C)(C)NC(=O)[C@H](C)NC(=O)[C@H](C)NC(=O)[C@H](CCC(N)=O)NC(=O)[C@H](CCCCN)NC(=O)[C@H](CC(=O)O)NC(=O)[C@H](CC(C)C)NC(=O)[C@H](Cc1ccc(O)cc1)NC(=O)[C@@H](NC(=O)[C@H](CO)NC(=O)[C@H](Cc1ccc(O)cc1)NC(=O)[C@H](CC(=O)O)NC(=O)[C@H](CO)NC(=O)[C@@H](NC(=O)[C@H](Cc1ccccc1)NC(=O)[C@@H](NC(=O)CNC(=O)[C@H](CCC(N)=O)NC(=O)C(C)(C)NC(=O)[C@@H](N)Cc1ccc(O)cc1)[C@@H](C)O)[C@@H](C)O)[C@@H](C)CC)C(C)C)C(N)=O

Experiments:
Test in all cases: cell-based or functional assay
[1] = target: T2, human glucagon-like peptide 1 receptor (human, UniProt P43220 24-463)
[2] = target: T1, human glucose-dependent insulinotropic …
[3] = target: T3, human glucagon receptor (human, UniProt P47871 26-477)
[4] = target: T2, human glucagon-like peptide 1 receptor; remark: listed apart in the source
[5] = target: T1, human glucose-dependent insulinotropic …; remark: listed apart in the source
[6] = target: T3, human glucagon receptor; remark: listed apart in the source

T3 sequence (P47871 26-477): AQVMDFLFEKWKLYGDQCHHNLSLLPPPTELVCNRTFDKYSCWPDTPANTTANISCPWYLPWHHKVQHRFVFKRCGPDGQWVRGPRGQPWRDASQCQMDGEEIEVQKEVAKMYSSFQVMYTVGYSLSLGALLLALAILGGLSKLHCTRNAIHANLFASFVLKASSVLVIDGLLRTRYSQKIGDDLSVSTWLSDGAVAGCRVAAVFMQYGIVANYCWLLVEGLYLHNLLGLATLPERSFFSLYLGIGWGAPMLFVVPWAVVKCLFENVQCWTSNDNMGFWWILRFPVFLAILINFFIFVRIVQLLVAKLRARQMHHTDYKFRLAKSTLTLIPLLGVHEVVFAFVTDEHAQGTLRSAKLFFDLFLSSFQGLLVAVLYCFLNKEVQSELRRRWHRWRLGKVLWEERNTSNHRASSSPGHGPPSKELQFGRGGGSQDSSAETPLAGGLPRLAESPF

Binder | hGLP-1R CRE Luc EC50 (pM) [1] [pM] | hGIPR CRE Luc EC50 (pM) [2] [pM] | hGcgR CRE Luc EC50 (pM) [3] [pM] | hGLP-1R CRE Luc EC50 (pM) [4] [pM] | hGIPR CRE Luc EC50 (pM) [5] [pM] | hGcgR CRE Luc EC50 (pM) [6] [pM]
Y[Aib]QGTFTSDYSIYLDKQAA[Aib]EFVNWLLAGGPSSGAPPPSK-NH2 (not fully specified (residue 40)) [Compound No. 59] | 11.7 | 44.5 | 703 | – | – | –
B1 | 5.4 | 27.5 | 34.7 | 5.4 | 27.5 | 34.7
B2 | 7.1 | 49.8 | 47.6 | 7.1 | 49.8 | 47.6
Y[Aib]QGTFTSDYSIYLDKQAA[Aib]EFVNWLLAKGPSSGAPPPS-NH2 (not fully specified (residue 29)) [Compound No. 65] | 132 | 56 | 1350 | – | – | –
B3 | 8.6 | 23.7 | 157 | 8.6 | 23.7 | 157
Y[Aib]QGTFTSDYSIYLDKQAA[Aib]EFVKWLLAGGPSSGAPPPS-NH2 (not fully specified (residue 24)) [Compound No. 64] | 45.4 | 174 | 464 | – | – | –
Y[Aib]QGTFTSDYSIYLDKQAA[Aib]EFVNWLLAGGPSSGKPPPS-NH2 (not fully specified (residue 35)) [Compound No. 66] | 12 | 26 | 1020 | – | – | –
B4 | 4.1 | 7.2 | 21.2 | – | – | –
